# Literature values in patent US12440573B2, “Antibody-conjugates for targeting of tumours expressing PTK7” (Synaffix B.V., priority 2022, dated 2025).
# B1: PF-06647020: prior-art ADC: humanized anti-PTK7 antibody with auristatin microtubule inhibitor payload (Aur0101) (conjugate, chains of the INN, looked up)
# VH: QVQLVQSGPEVKKPGASVKVSCKASGYTFTDYAVHWVRQAPGKRLEWIGVISTYNDYTYNNQDFKGRVTMTRDTSASTAYMELSRLRSEDTAVYYCARGNSYFYALDYWGQGTSVTVSS
# VL: EIVLTQSPATLSLSPGERATLSCRASESVDSYGKSFMHWYQQKPGQAPRLLIYRASNLESGIPARFSGSGSGTDFTLTISSLEPEDFAVYYCQQSNEDPWTFGGGTKLEIK
# modifications: Aur0101 auristatin payload
# How the values were obtained:
# [1] = test system: patient-derived, tumor xenograft preclinical models
# [2] = test system: locally advanced/metastatic, PTK7-positive NSCLC, TNBC, and platinum-resistant OvCa; conditions: previously treated patients, administered every 2 or 3 weeks
molecule,measurement,setting,value
B1,tumor regression,[1],prolonged tumor regression
same,clinical activity,[2],preliminary clinical activity
same,safety profile,[2],tolerable safety profile
